From the supplement of paper PMC9112550, “Optimization of the antimicrobial peptide Bac7 by deep mutational scanning” (BMC Biology, 2022)

Test system: Escherichia coli TOP10
Test: shrunken log2 fold change of peptide-encoding DNA abundance (4.5 h post-induction vs induction); higher = less antimicrobial activity (less host growth inhibition)
Conditions: time post-induction: 4.5 h; library: site-saturation at positions 5, 18, 19, 20
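Further: peptides expressed intracellularly from a pBAD plasmid library in pooled LB shake-flask culture, induced with 0.3% L-arabinose, DNA abundance read by NGS, three biological replicates, DESeq2 with apeglm shrinkage.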

Sequence	shrunken log2 fold change
RRIRDRPPRLPRPRPRPLYHPRP	-0.54
RRIRDRPPRLPRPRPRPMAAPRP	0.0982
RRIRDRPPRLPRPRPRPMACPRP	-0.00146
RRIRDRPPRLPRPRPRPMAIPRP	0.00911
RRIRDRPPRLPRPRPRPMCFPRP	0.0878
RRIRDRPPRLPRPRPRPMCPPRP	0.00942
RRIRDRPPRLPRPRPRPMCVPRP	0.101
RRIRDRPPRLPRPRPRPMFHPRP	-0.0543
RRIRDRPPRLPRPRPRPMFPPRP	-0.257
RRIRDRPPRLPRPRPRPMFQPRP	-0.0111
RRIRDRPPRLPRPRPRPMHNPRP	-0.696
RRIRDRPPRLPRPRPRPMISPRP	0.185
RRIRDRPPRLPRPRPRPMIWPRP	-0.0952
RRIRDRPPRLPRPRPRPMKMPRP	0.0275
RRIRDRPPRLPRPRPRPMKNPRP	-0.0366
RRIRDRPPRLPRPRPRPMLEPRP	0.358
RRIRDRPPRLPRPRPRPMMVPRP	0.0541
RRIRDRPPRLPRPRPRPMQIPRP	0.0565
RRIRDRPPRLPRPRPRPMRIPRP	-0.0494
RRIRDRPPRLPRPRPRPMTGPRP	0.0274
RRIRDRPPRLPRPRPRPMTYPRP	-0.109
RRIRDRPPRLPRPRPRPMWAPRP	-0.0235
RRIRDRPPRLPRPRPRPMWGPRP	-0.0471
RRIRDRPPRLPRPRPRPMWVPRP	0.179
RRIRDRPPRLPRPRPRPMYCPRP	-0.00227

Sequence	shrunken log2 fold change
RRIRDRPPRLPRPRPRPNAFPRP	-0.0726
RRIRDRPPRLPRPRPRPNASPRP	0.527
RRIRDRPPRLPRPRPRPNCHPRP	-0.23
RRIRDRPPRLPRPRPRPNCNPRP	1.33
RRIRDRPPRLPRPRPRPNELPRP	-0.0493
RRIRDRPPRLPRPRPRPNFFPRP	0.144
RRIRDRPPRLPRPRPRPNIWPRP	0.306
RRIRDRPPRLPRPRPRPNLSPRP	-0.115
RRIRDRPPRLPRPRPRPNMPPRP	-0.497
RRIRDRPPRLPRPRPRPNNMPRP	-0.0368
RRIRDRPPRLPRPRPRPNPMPRP	-0.0935
RRIRDRPPRLPRPRPRPNQHPRP	-0.283
RRIRDRPPRLPRPRPRPNQMPRP	-0.0987
RRIRDRPPRLPRPRPRPNRIPRP	-0.152
RRIRDRPPRLPRPRPRPNSDPRP	-0.272
RRIRDRPPRLPRPRPRPNSGPRP	-0.269
RRIRDRPPRLPRPRPRPNSMPRP	0.0952
RRIRDRPPRLPRPRPRPNTAPRP	-0.0636
RRIRDRPPRLPRPRPRPNTRPRP	-0.238
RRIRDRPPRLPRPRPRPNVWPRP	0.234
RRIRDRPPRLPRPRPRPNYVPRP	-0.147
RRIRDRPPRLPRPRPRPPAKPRP	0.443
RRIRDRPPRLPRPRPRPPCQPRP	0.029
RRIRDRPPRLPRPRPRPPDEPRP	0.00333
RRIRDRPPRLPRPRPRPPDKPRP	0.189

Sequence	shrunken log2 fold change
RRIRDRPPRLPRPRPRPPEIPRP	0.487
RRIRDRPPRLPRPRPRPPFDPRP	0.422
RRIRDRPPRLPRPRPRPPGLPRP	-0.317
RRIRDRPPRLPRPRPRPPGTPRP	0.435
RRIRDRPPRLPRPRPRPPHYPRP	0.0761
RRIRDRPPRLPRPRPRPPIGPRP	0.849
RRIRDRPPRLPRPRPRPPIYPRP	-0.242
RRIRDRPPRLPRPRPRPPKPPRP	0.214
RRIRDRPPRLPRPRPRPPLMPRP	0.325
RRIRDRPPRLPRPRPRPPMAPRP	-0.0543
RRIRDRPPRLPRPRPRPPPIPRP	0.45
RRIRDRPPRLPRPRPRPPPMPRP	0.519
RRIRDRPPRLPRPRPRPPRFPRP	0.315
RRIRDRPPRLPRPRPRPPRGPRP	1.31
RRIRDRPPRLPRPRPRPPRYPRP	0.244
RRIRDRPPRLPRPRPRPPSCPRP	0.379
RRIRDRPPRLPRPRPRPPSKPRP	0.0904
RRIRDRPPRLPRPRPRPPSLPRP	-0.128
RRIRDRPPRLPRPRPRPPVAPRP	0.304
RRIRDRPPRLPRPRPRPPVIPRP	0.0554
RRIRDRPPRLPRPRPRPPVLPRP	0.267
RRIRDRPPRLPRPRPRPPVRPRP	0.0542
RRIRDRPPRLPRPRPRPPWDPRP	0.442
RRIRDRPPRLPRPRPRPPWKPRP	0.141
RRIRDRPPRLPRPRPRPPWPPRP	0.654
